In experiment [1] the target is T1, human C1q (Catalog No. 204876-1MG; Sigma Aldrich) (human, UniProt P02745 23-245; P02746 28-253; P02747 29-245).
T1 construct: Bought protein
Briefly: BLI; Fc fusion (25 µg/mL) captured on IL4-bound streptavidin sensors, human C1q at 250 µg/mL. The method, then: (§1) The determine the binding affinity of C1q to canine IgG-B Fc variant 1, a biosensor binding analysis was performed. In this assay, the affinity of C1q to a fusion protein of a canine IL4 receptor ECD and IL13 receptor ECD (IL4R/IL13R) and canine IgG-B Fc wild-type (IL4R/IL13R-canine IgG-B, SEQ ID NO: 95) or to canine IgG-B Fc variant 1 (IL4R/IL13R-canine IgG-B variant 1, SEQ ID NO: 96) was tested. Briefly, canine IL4 was biotinylated. Biotinylated canine IL4 was captured on streptavidin sensor tips. Either IL4R/IL13R-canine IgG-B wild-type (25 ug/mL) or IL4R/IL13R-canine IgG-B variant 1 (25 μg/mL) were complexed to the IL4-bound biosensors. Subsequently, the complex was used to bind human C1q at 250 μg/mL (Catalog No. 204876-1MG; Sigma Aldrich). Then, the ability of human C1q to bind to either complex was measured. Reduced binding between human C1q and IL4R/IL13R-canine IgG-B variant 1 was observed when compared to IL4R/IL13R-canine IgG-B wild-type.

The target of experiment [2] is T2, canine IL4 (biotinylated) (canine, UniProt O77762 25-132, biotinylated).
T2 construct: Used only to capture the IL4R/IL13R-Fc fusions on streptavidin sensor tips; also called Biotinylated canine IL4
T2 sequence (looked up): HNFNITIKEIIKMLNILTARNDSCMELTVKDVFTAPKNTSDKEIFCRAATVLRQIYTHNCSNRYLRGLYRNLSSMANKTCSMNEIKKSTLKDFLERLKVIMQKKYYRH
Briefly: BLI capture step; biotinylated canine IL4 on streptavidin sensor tips, fusion at 25 µg/mL. As to the method:
as §1

Experiment [3] addresses T3, canine IL17A (as used at 1 nM in the H1080 cell assay) (canine).
T3 chain: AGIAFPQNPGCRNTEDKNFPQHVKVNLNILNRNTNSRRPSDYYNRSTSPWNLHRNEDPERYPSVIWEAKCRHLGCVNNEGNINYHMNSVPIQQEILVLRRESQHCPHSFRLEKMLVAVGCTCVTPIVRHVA
Briefly: cell-based or functional assay.

Experiment [4] has as its target T4, canine IL17F-polyHis (canine, biotinylated in the biosensor assay).
T4 construct: also called IL17F homodimer; not shown: poly-His tag on the C-terminal
T4 chain: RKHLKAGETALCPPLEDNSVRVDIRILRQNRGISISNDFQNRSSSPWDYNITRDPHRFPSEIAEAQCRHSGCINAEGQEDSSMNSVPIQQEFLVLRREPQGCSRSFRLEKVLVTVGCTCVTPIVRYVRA
In words: Western blot: SDS-PAGE, PVDF, goat anti-mouse IgG-HRP. As to the method:
Canine IL17A-hFc, feline IL17A-polyHis, equine IL17A-polyHis, and canine IL17F-polyHis (0.6 μg) were each separated by SDS-PAGE and the proteins transferred to PVDF membranes. The blots were probed using Clone A, C, D, or E antibody followed by goat anti-mouse IgG-HRP. In this Western analysis, Clone A, C, and E antibodies immunoreacted to canine and equine IL17A, but not to feline IL17A or canine IL17F. Clone D antibody immunoreacted to canine, feline, and equine IL17A, but not to canine IL17F.

Another experiment deals with T5, canine IL17A-polyHis (canine, biotinylated (EZ-Link NHS-LC-biotin) in the biosensor assays).
T5 construct: also called biotinylated canine IL17A-polyHis; not shown: poly-His tag on the C-terminal
T5 chain: T3 chain
In words: BLI (Octet); biotinylated canine IL17A-polyHis on streptavidin sensors, antibody 0-220 nM, 1:1 model. The method, then:
The binding analysis was performed using a Biosensor Octet as follows. Briefly, canine IL17A-polyHis, which was expressed and purified from CHO-S cells, was biotinylated using EZ-Link NHS-LC-biotin (Catalog No. 21336, Thermo Scientific). Free, unreacted biotin was removed from biotinylated IL17A by dialysis. Biotinylated canine IL17A was captured on streptavidin sensor tips (Catalog No. 18-509, ForteBio). The association of different concentrations (0 nM, 18.33 nM, 45.87 nM, 110 nM, 220 nM) of hybridoma Clone C or caninized Clone C antibody to canine IL17A was monitored for 90 seconds. Dissociation was monitored for 600 seconds. A buffer only blank curve was subtracted to correct for any drift. The data were fit to a 1:1 binding model using ForteBio™ data analysis software to determine the kₒₙ, koff, and the Kd. The buffer for dilutions and all binding steps was: 20 mM phosphate, 150 mM NaCl, pH 7.2.

The target of experiment [5] is T4, canine IL17F-polyHis. Briefly: BLI (Octet); biotinylated canine IL17F-polyHis on streptavidin sensors, antibody 0-124 nM, 1:1 model. As to the method:
The binding analysis was performed using a biosensor Octet as follows. Briefly, canine IL17F-polyHis was biotinylated using EZ-Link NHS-LC-biotin (Catalog No. 21336, Thermo Scientific). Free, unreacted biotin was removed from biotinylated IL17F-polyHis by dialysis. Biotinylated canine IL17F was captured on streptavidin sensor tips (Catalog No. 18-509, ForteBio). The association of different concentrations (0 nM, 2 nM, 10.1 nM, 21.3 nM, 43.3 nM, 86.7 nM, 124 nM) of the caninized Clone C antibody and canine IL17F-polyHis was monitored for ninety seconds. Dissociation was monitored for 600 seconds. A buffer only blank curve was subtracted to correct for any drift. The data were fit to a 1:1 binding model using ForteBio™ data analysis software to determine the kₒₙ, koff, and the Kd. The buffer for dilutions and all binding steps was: 20 mM phosphate, 150 mM NaCl, pH 7.2.

Experiment [6] addresses T3, canine IL17A (as used at 1 nM in the …). Briefly: cell-based or functional assay.

The values that follow come from patent US20200199216A1 (KINDRED BIOSCIENCES, published 2020).

Residue numbers refer to the chain shown, from its start.

T1 sequence (P02745 23-245 limits assumed, chain 1 of 3): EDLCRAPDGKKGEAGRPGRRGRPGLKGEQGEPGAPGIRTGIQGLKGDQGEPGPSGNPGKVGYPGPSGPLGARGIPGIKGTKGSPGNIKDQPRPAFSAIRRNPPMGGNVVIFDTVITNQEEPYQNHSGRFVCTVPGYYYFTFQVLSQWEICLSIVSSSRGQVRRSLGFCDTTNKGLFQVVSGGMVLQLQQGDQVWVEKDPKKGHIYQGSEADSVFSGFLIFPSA
T1 sequence (P02746 28-253 limits assumed, chain 2 of 3): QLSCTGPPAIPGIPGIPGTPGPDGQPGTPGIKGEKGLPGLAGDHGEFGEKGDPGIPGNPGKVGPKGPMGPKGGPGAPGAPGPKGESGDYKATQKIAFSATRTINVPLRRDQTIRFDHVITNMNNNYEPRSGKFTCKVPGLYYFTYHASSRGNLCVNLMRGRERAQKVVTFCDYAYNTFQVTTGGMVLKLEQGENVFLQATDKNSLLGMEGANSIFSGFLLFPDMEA
T1 sequence (P02747 29-245 limits assumed, chain 3 of 3): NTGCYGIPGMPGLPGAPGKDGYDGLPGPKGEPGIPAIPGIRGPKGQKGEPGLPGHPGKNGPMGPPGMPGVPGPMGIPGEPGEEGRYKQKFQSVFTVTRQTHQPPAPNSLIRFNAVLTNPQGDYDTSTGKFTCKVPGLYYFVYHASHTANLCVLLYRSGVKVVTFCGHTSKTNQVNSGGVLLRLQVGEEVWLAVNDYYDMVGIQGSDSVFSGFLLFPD

B1: IL4R/IL13R-canine IgG-B wild-type (Fc fusion)
chain: TETQPPVTNLSVSVENLCTVIWTWDPPEGASPNCTLRYFSHFDNKQDKKIAPETHRSKEVPLNERICLQVGSQCSTNESDNPSILVEKCTPPPEGDPESAVTELQCVWHNLSYMKCTWLPGRNTSPDTNYTLYYWHSSLGKILQCEDIYREGQHIGCSFALTNLKDSSFEQHSVQIVVKDNAGKIRPSFNIVPLTSHVKPDPPHIKRLFFQNGNLYVQWKNPQNFYSRCLSYQVEVNNSQTETNDIFYVEEAKCQNSEFEGNLEGTICFMVPGVLPDTLNTVRIRVRTNKLCYEDDKLWSNWSQAMSIGENTDPTGGGSGSGSVKVLHEPSCFSDYISTSVCQWKMDHPTNCSAELRLSYQLDFMGSENHTCVPENREDSVCVCSMPIDDAVEADVYQLDLWAGQQLLWSGSFQPSKHVKPRTPGNLTVHPNISHTWLLMWTNPYPTENHLHSELTYMVNVSNDNDPEDFKVYNVTYMGPTLRLAASTLKSGASYSARVRAWAQTYNSTWSDWSPSTTWLNYYEPKRENGRVPRPPDCPKCPAPEMLGGPSVFIFPPKPKDTLLIARTPEVTCVVVDLDPEDPEVQISWFVDGKQMQTAKTQPREEQFNGTYRVVSVLPIGHQDWLKGKQFTCKVNNKALPSPIERTISKARGQAHQPSVYVLPPSREELSKNTVSLTCLIKDFFPPDIDVEWQSNGQQEPESKYRTTPPQLDEDGSYFLYSKLSVDKSRWQRGDTFICAVMHEALHNHYTQESLSHSPGK
In the case of B1, the binding result in experiment [1] and in experiment [2] was “binds” each time.

B2: IL4R/IL13R-canine IgG-B variant 1 (C1q binding mutant) (Fc fusion)
chain: B1 chain with K634R
As to B2, the binding result in experiment [1] and in experiment [2] was “binds” each time.

B3: mouse monoclonal antibody Clone A (antibody, IgG1, V domains shown)
VH: QVQLKESGPGLVAPSQSLSITCTISGFSLTSNGVHWVRQSPGKDLEWLVVIWSDGTTTYNSDFKSRLSISKDNSKSQVFLKMNSLQTDDTAMYYCARHYDWGYYYAMDYWGQGTSVTVSS
VL: DVVMTQTPLSLPVSLGDQASISCRSSQSLVHSNGNTYLHWYLQRPGQSPNLLIYKVSNRFSGVPDRFSGSGSGTDFTLKISRVEAEDLGVYFCSQSTHVPFTFGSGTKLEIK
notes: Hybridoma antibody; also called antibody A
B3: the “EC50 (ng/mL), H1080 Cell Functional Assay (IL6 secretion)” value in experiment [3] was 13 ng/mL. Besides, the binding result with canine IL17F-polyHis [4] is reported as “no binding (tested: 0.6 µg of target per lane)”.

B4: mouse monoclonal antibody Clone E (antibody, mouse IgG1, V domains shown)
VH: B3 VH with S40P, D44G, D62A, F63L, W101R
VL: B3 VL with L38F, R44K, N50K, V99A
notes: Hybridoma antibody; also called antibody E
For the molecule B4, the “EC50 (ng/mL), H1080 Cell Functional Assay (IL6 secretion)” value in experiment [3] is 40 ng/mL. Also, the binding result with canine IL17F-polyHis [4] is “no binding (tested: 0.6 µg of target per lane)”.

B5: caninized Clone C antibody (caninized Clone C VH with canine IgG-B, caninized Clone C VL with canine kappa constant region) (antibody, V domains shown)
VH: EVQLVESGGGLVKPGGSLRLSCAASGFTFSSYGMSWVRQAPGKRLELVAIINSNGGSTYYPDSVKGRFTFSLDTSKNTLYLQMNSLRAEDTAMYYCVRCHYDYERVFDYWGQGTLVTVSS
VL: DIQMTQSPASVSGSLGDKVSITCKANDHINNWLAWYQQLPGNAPRLLISGSTSLESGVPDRFSGSKSGSSFTLTISGLQPEDFATYYCQQYWSTPFTFGSGTKVEIKR
notes: expressed in CHO-S cells, purified on Protein A
For the molecule B5, the figures for the dissociation constant Kd with canine IL17A-polyHis and with canine IL17F-polyHis [5] were 1.4 nM and 4.1 nM, respectively. Further, the “IC50, H1080 cell-based canine IL17A neutralization assay (IL6 secretion)” value in experiment [6] amounted to 0.41 nM.
